Data on seven molecules can be found in US7163815B2, “Methods and compositions for NAD(P)(H) oxidases” (Georgia Tech Research Corporation, priority 2002, dated 2007).

Substitutions are numbered along the chain they refer to. Names may count otherwise. “Also recorded” adds a separate entry of the source.

The target of data set [1] is Borrelia burgdorferi NADH oxidase BNOX (BNOXK6; SEQ ID NOs 8, 10 and 12) (Borreliella burgdorferi, UniProt O51670, E220G/N174S). The experiment in a line: Kinetics of cofactor substrates, BNOX (change of absorbance at 340 nm). The class given is biochemical. Conditions: pH 7.0, 30° C., comparable degree of purity to SFNOX. Here is the method:
(§1) The kinetic analysis was performed on ammonium sulfate fractions from both the sfnox and bnox strains in 50 mM HEPES buffer pH 7.0 at 30° C. The initial enzyme fractions were diluted in 25 mM HEPES pH 7.0 at 30° C.+25% glycerol+5 mM DTT to approximately −0.05 A340 nm/min and retained on ice during analysis. Conversion of NAD(P)H was followed by change of absorbance at 340 nm in a Jasco V-530 spectrophotometer. 3 mL methylacrylate disposable cuvettes were used for all experiments and all runs were performed in triplicate at 30° C. Reactions with NADH were started by adding 3 μL of enzyme preparation, 9 μL for NADPH, to the cuvette and mixing by inversion with parafilm three times. Varying concentrations of NAD(P)H substrate were made my preparing 100 mL of a 300 μM solution in a volumetric flask. Dilutions of this solution were then made to provide the differing substrate concentrations for the kinetic profile.
(§2) Investigation of kinetic parameters with NADH and NADPH cofactors as substrates was performed with the supernatant of the 45% ammonium sulfate cut (40% for BNOXK6) in air-saturated solution at 30° C. and pH 7.0 in 0.1 M HEPES buffer. […] Chi values and error bars reveal high accuracy with <10% error in most cases.

Data set [2] has as its system L. brevis (R)-ADH, G37D mutant. Conditions: in comparison with the wildtype for NADP^+; cited from earlier work.
Data set [3] deals with NC(=O)C1=CN([C@@H]2O[C@H](COP(=O)(O)OP(=O)(O)OC[C@H]3O[C@@H](n4cnc5c(N)ncnc54)[C@H](O)[C@@H]3O)[C@@H](O)[C@H]2O)C=CC1. The experiment in a line: Kinetics of cofactor substrates, BNOX (change of absorbance at 340 nm). It counts as biochemical, Borrelia burgdorferi. Conditions: other: BNOX, pH 7.0, 30° C., HEPES buffer, air-saturated solution, 40% ammonium sulfate cut for BNOXK6. Here is the method:
as §1, §2

A short description of data set [4]: Nox activity assay (NADH oxidation at 340 nm). Conditions: overexpressed in E. coli. The class given is biochemical. Here is the method:
Nox activity assay: Cell-free extracts of the recombinant sfnox and bnox E. coli strains were prepared using ultrasonication described above in 0.1 M TEA pH 7.5+5 mM DTT or β-mercaptoethanol. Nox activities were assayed at 30° C. in a total volume of 1 mL at 340 nm using the following conditions: in 0.1 M TEA pH 7.5 a final concentration of 0.2 mM NADH was dissolved and 10 μl enzyme solution was added. Enzyme reaction was followed for 1 min, activity was calculated using an extinction coefficient ε of NADH of […].

The next data set is described as follows: Activity-pH profile. It counts as biochemical. Here is the method: With the supernatant of the 45% ammonium sulfate cut, an activity—pH profile was measured for SFNOX (FIG. 4). The pH optimum of activity was found at pH 5.2. Below pH 5, activity decreased markedly and reached zero at pH 4.5. Rates at pH 4.5 to 5.2 are reported as net rates, with the chemical decomposition rate at low pH subtracted. […] The sharp activity decline between pH 5.2 and 6.0 coincides with the enzyme's pI, calculated to be pH 5.4.
The pH profile was performed on ammonium sulfate fractions from the sfnoxK2. 100 mM buffer solutions at 30° C. and 200 μM NADH were used for activity analysis as monitored by absorbance at 340 nm. All samples were tested in triplicate in 3 mL methylacrylate disposable cuvettes. The following buffers were utilized within the buffering range of 1 pH unit from their pKa: acetate, N-methylpiperazine, MES (2-[N-morpholino]ethanesulfonic acid hydrate), and bis-tris-propane. Sodium hydroxide or hydrochloric acid were used in preparation of the respective buffers.

Data set [5] is described as follows: Kinetics of cofactor substrates, NADPH. It counts as biochemical. Conditions: pH 7.0, 30° C. Here is the method: as §1, §2
Data set [6] can be described thus: Hydrogen peroxide assay (Amplex Red / resorufin fluorescence). It counts as biochemical. The settings on record: upon conversion of 300 μM NADH. Here is the method: With its detection limit of 100 nM, the test based on 9-acetyl-resorufin (“Amplex Red”) is much more sensitive than the other assays mentioned. Horseradish peroxidase (HRP)-catalyzed oxidation of 9-acetyl resorufin (“Amplex Red”) to fluorescent resorufin was the assay. Amplex Red reacts with H2O2 according to a strict 1:1 stoichiometry. The resorufin assay (λmax: 587 nm (emission), ε=54,000 L(mol-cm)^−1) with its extremely low detection limit of 100 nM resorufin product is much more sensitive than other assays, such as ABTS or o-dianisidine..
For the sensitive assay of putative hydrogen peroxide formation during the reaction of NADH oxidase the horseradish peroxidase-catalyzed oxidation of 9-acetyl resorufin was employed. The Amplex Red hydrogen peroxide assay kit (A-22188) from molecular probes was utilized for these assays. Following the protocols outlined in the kit instructions, a standard curve of H2O2 was prepared in the reaction buffer (50 mM sodium phosphate buffer pH 7.4) from the peroxide stock. The prepared concentrations were 20, 10, 5, and 2.5 μM H2O2 and 0 as a control. A working solution of 100 μM Amplex Red reagent and 0.2 U/ml horseradish peroxidase (HRP) was prepared in the reaction buffer as per kit instructions. As NADH and other reducing reagents are known to interfere with the amplex red assay, the NADH oxidase enzymes were allowed to react with the substrate immediately prior to the Amplex Red analysis. Reaction buffer from the kit was utilized in running enzyme test with 300 μM NADH as well as the controls without NADH. The enzyme conversions were performed by adding 3 μl of enzyme prep to 3 ml of reaction buffer with 300 μM NADH, mixing, and following the conversion until completion by absorbance at 340 nm. 50 μl of the final reaction mixture and standard curve solutions were added to each well in a 96 well fluorescence plate (costar, black, pp). Five replicates were made per sample and standard curve point. […] Fluorescence readings were performed in a BMG FLUOstar Galaxy micro plate reader with 544ex/590em filter settings.

With `NC(=O)C1=CN([C@@H]2O[C@H](COP(=O)(O)OP(=O)(O)OC[C@H]3O[C@@H](n4cnc5c(N)ncnc54)[C@H](O)[C@@H]3O)[C@@H](O)[C@H]2O)C=CC1` [NADH], the vmax in data set [1] is recorded as 2.03 U/mg.
For `NC(=O)c1ccc[n+]([C@@H]2O[C@H](COP(=O)([O-])OP(=O)(O)OC[C@H]3O[C@@H](n4cnc5c(N)ncnc54)[C@H](O)[C@@H]3O)[C@@H](O)[C@H]2O)c1` [NAD^+], the “KM-value for NAD^+” value in data set [2] is reported as “very high”.
As for “Borrelia burgdorferi NADH oxidase BNOX (BNOXK6; SEQ ID NOs 8, 10 and 12) (Borreliella burgdorferi B31; E220G/N174S)”, in data set [3], the Km was found to be 22.0 µM.

B1: SFNOXK2: sequenced SFNOX clone with alanine to valine change at position 30 (A30V), SEQ ID 4 (protein)
chain: MKVIVVGCTHAGTFAVKQTIADHPDADVTVYEMNDNISFLSCGIALYLGKEIKNNDPRGLFYSSPEELSNLGANVQMRHQVTNVDPETKTIKVKDLITNEEKTEAYDKLIMTTGSKPTVPPIPGIDSSRVYLCKNYNDAKKLFEEAPKAKTITIIGSGYIGAELAEAYSNQNYNVNLIDGHERVLYKYFDKEFTDILAKDYEAHGVNLVLGSKVAAFEEVDDEIITKTLDGKEIKSDIAILCIGFRPNTELLKGKVAMLDNGAIITDEYMHSSNRDIFAAGDSAAVHYNPTNSNAYIPLATNAVRQGRLVGLNLTEDKVKDMGTQSSSGLKLYGRTYVSTGINTALAKANNLKVSEVIIADNYRPEFMLSTDEVLMSLVYDPKTRVILGGALSSMHDVSQSANVLSVCIQNKNTIDDLAMVDMLFQPQFDRPFNYLNILGQAAQAQADKAHK
Consider B1, for which the “activity of the overexpressed constructs” value in data set [4] was “comparable activity”.

B2: SFNOX: NAD(P)H oxidase isolated from Lactobacillus sanfranciscensis, SEQ ID NO 2; oxidizes NADH and NADPH, reduces oxygen to water (protein)
chain: B1 chain with V30A
Turning to B2, the “pH of the minimum of the bimodal activity-pH curve” value in “Activity-pH profile” (200 μM NADH, 30° C.) is around 5.5. The “pH optimum of activity” value in “Activity-pH profile” (200 μM NADH, 30° C., supernatant of 45% ammonium sulfate cut) was 5.2. In addition, the “activity at pH 4.5” value in the data set “Activity-pH profile” (pH 4.5, net rate) is “zero”. In addition, the “activity at pH 5.5” value in “Activity-pH profile” (pH 5.5) is on record as “instantaneously lose activity”. Moreover, the “acceptance of NADPH as a substrate” value in data set [5] is on record as “accept NADPH as a substrate with good reactivity”. Moreover, in data set [5] (ratio of vmax), the “activity with NADPH relative to activity towards NADH” value is reported as “about 30%”. In data set [6], the H2O2 yield amounted to 0.2% and the “resorufin above background (equal concentration of H2O2 formed)” value came to 0.6 µM.

B3: SFNOXK6: sequenced SFNOX clone with A30V and lysine to arginine at position 102 (K102R), SEQ ID NO 6 (protein)
chain: B1 chain with K102R, E250G
Consider B3, for which the “activity of the overexpressed constructs” value in data set [4] is recorded as “comparable activity”.

B4: BNOX: NADH oxidase from Borrelia burgdorferi, SEQ ID NO 8; reacts with NADH only (protein)
chain: MMKIIIIGGTSAGTSAAAKANRLNKKLDITIYEKTNIVSFGTCGLPYFVGGFFDNPNTMISRTQEEFEKTGISVKTNHEVIKVDAKNNTIVIKNQKTGTIFNNTYDQLMIATGAKPIIPPINNINLENFHTLKNLEDGQKIKKLMDREEIKNIVIIGGGYIGIEMVEAAKNKRKNVRLIQLDKHILIDSFDEEIVTIMEEELTKKGVNLHTNEFVKSLIGEKKAEGVVTNKNTYQADAVILATGIKPDTEFLENQLKTTKNGAIIVNEYGETSIKNIFSAGDCATIYNIVSKKNEYIPLATTANKLGRIVGENLAGNHTAFKGTLGSASIKILSLEAARTGLTEKDAKKLQIKYKTIFVKDKNHTNYYPGQEDLYIKLIYEENTKIILGAQAIGKNGAVIRIHALSIAIYSKLTTKELGMMDFSYSPPFSRTWDILNIAGNAAK
Regarding B4, in data set [5], the “acceptance of NADPH as a substrate” value was “does not accept NADPH as a substrate; also recorded: only accepts NADH”. The “resorufin above background (equal concentration of H2O2 formed)” value in data set [6] was “could not detect any resorufin above background”.

What is called Km is the substrate concentration at which the rate is half of its maximum.
